Measurements reported in publication PMC5485859.

Assays:
Conditions in all cases: reference: WT HSP90α, after IR; sites T5,T7
[1] = molecular target: glucocorticoid receptor (GR) (UniProt P06537); assay: anti-GR IP, anti-Flag blot
androgen receptor (AR) = androgen receptor (AR) (UniProt P19091); assay: co-immunoprecipitation
[2] = molecular target: endothelial nitric oxide synthase (eNOS) (UniProt P70313); assay: co-immunoprecipitation
liver kinase B1 (LKB1) = liver kinase B1 (LKB1) (UniProt Q9WTK7); assay: anti-LKB1 IP, anti-Flag blot

Measured: binding against the reference

HSP90α (from UniProt P07901) T5,7A HSP90α, after IR
stronger: all assays above
